Article doi:10.1101/2025.02.12.637823v1 (biorxiv, 2025)

Columns and labels:
SlNADP-ME4a = experiment: initial velocity, spectrophotometric; assay type: biochemical, Solanum lycopersicum; conditions: pyruvate reductive carboxylation (reverse reaction); assay details not given
[1] = substrate: CC(=O)C(=O)O; experiment: initial velocity, spectrophotometric; assay type: biochemical, Solanum lycopersicum; conditions: pyruvate reductive carboxylation (reverse reaction); assay details not given

Molecule | Km (SlNADP-ME4a) | Km [1] | kcat [1]
CC(=O)C(=O)O [pyr] | 15.5 ± 1 mM | – | –
SlNADP-ME2 (Solanum lycopersicum) (protein) MESALKDLSTPTGGVEDVYGEDCATEDQCITPWTIAVSSGYNLLRDPRYNKGLAFTERERDAHYLRGLLPPVISSQELQEKKLMQSIRQYDVPLHKYVAMMELEERNERLFYKLLIDNVEELLPIVYTPTVGEACQKYGSLFKRPQGLYISLNEKGRILEVLKNWPEKSIQVIVVTDGERILGLGDLGCQGMGIPVGKLALYTALGGVRPSACLPITIDVGTNNEKLLNDEFYIGLRQRRATGQEYYDFLHEFMSAVKQNYGEKILVQFEDFANHNAFELLAKYRTSHLVFNDDIQGTASVVLAGLIASLKLLGGALCDHTFLFLGAGEAGTGIAELIALEISNKTNIPVEETRKKIWLVDSKGLIVSGRKETLQAFKKPWAHEHEPVNNLLDAVKAVKPTVLIGTSGTGRTFTKEVVEAMACMNKRPLIMALSNPTSQAECTAEEAYTWSEGRAVFASGSPFPSFEYDGKLNIPGQANNCYIFPGFGFGLVMSGTIRVHDDMLLAASEALAAQVTEEHYAKGMIYPPFADIRKISAHIAASVAAKAYELGVATRLPRPADLVKYAESCMYTPNYRSYR | – | 5.0 ± 1.1 mM | 26.5 ± 1.7 s⁻¹
